Patent US20030103985A1

Biological target: CD44v6 on antigen-positive FaDu cells (human head and neck cancer cell line) (human) (UniProt P16070)
Assay: flow cytometry (FACS) on FaDu cells, FITC-labeled anti-human IgG detection, on ice

Kd: 1 nM
B1: BIWA 4 (antibody, human IgG1, kappa, V domains shown)
VH: EVQLVESGGGLVKPGGSLRLSCAASGFTFSSYDMSWVRQAPGKGLEWVSTISSGGSYTYYLDSIKGRFTISRDNAKNSLYLQMNSLRAEDTAVYYCARQGLDYWGRGTLVTVSS
VL: EIVLTQSPATLSLSPGERATLSCSASSSINYIYWYQQKPGQAPRLLIYLTSNLASGVPARFSGSGSGTDFTLTISSLEPEDFAVYYCLQWSSNPLTFGGGTKVEIKR
